Consider one molecule from patent US20250282885A1 (VST BIO, published 2025).

For experiment [1], the target named is human Sdc2 on Human Umbilical Vein Endothelial Cells (HUVEC) (human, UniProt P34741 19-201). Description: cell-based or functional assay.
For experiment [2], the target named is T1, human Sdc2 (human, UniProt P34741 19-144, limits assumed).
T1 construct: Antigen of the Octet tandem binning, loaded on biosensors at 100 nM; also called huSdc2; hSdc2
Description: Octet tandem binning; saturating Ab f5 19844-R4M-P3-E06. (In BLI a coated tip is dipped into the sample, and binding shifts an interference pattern.)

The target in experiment [3] is T2, pig Sdc2 (pig, UniProt F1S0L5 19-145).
T2 construct: also called pSdc2
Nature of the experiment: Octet BLI, HIS1K sensor loaded with pigSdc2, antibody as sample; Full R2 0.9799.

Experiment [4] addresses T1, human Sdc2. Nature of the experiment: Octet BLI, HIS1K sensor loaded with huSdc2, antibody as sample; Full R2 0.9668. Here is the method:
(§1) In order to characterize the binding affinity and in vivo/in vitro functional ability of the twelve clones generated by the previous studies and disclosed in Table 1, a series of assays were performed on each clone. These assays measured the affinity of each antibody clone for human, pig, and mouse Sdc2 using an Octet® binding assay system. Additionally, the functional ability of each clone to inhibit VEGFA-driven permeability (see Santiago, et al. (2021) J Am Heart Assoc. 10(18):e020521) was assessed in two therapeutic settings: a “prevention” study in which three concentrations of antibody (5 μg/ml, 10 μg/ml, 15 μg/ml, 20 μg/ml, and/or 40 μg/ml depending on the study) were pre-incubated for an hour before administration of 100 ng/ml of VEGFA, and a “treatment” study in which 3 hours of pre-treatment with 100 ng/ml VEGFA were followed by treatment with antibody at 20 μg/ml or 40 μg/ml. Results are shown for 8-G17 in FIG. 8 and FIG. 9, 20-H19-AB in FIG. 10 and FIG. 11 (FIG. 12 for monkey ECs), R3-P3-C11 in FIG. 13 and FIG. 14, R4M-P3-E06 in FIG. 15 and FIG. 16, R3-P3-E09 in FIG. 17 and FIG. 18, R3-P1-C02 in FIG. 19 and FIG. 20, R3-P3-A12 in FIG. 21 and FIG. 22, R4M-P3-A12 in FIG. 23 and FIG. 24, and R4M-P1-A10 in FIG. 25 and FIG. 26.

Experiment [5] addresses T1, human Sdc2. Description: Octet tandem binning; Buffer in place of a saturating Ab.
In experiment [6] the target is T3, mouse Sdc2 (mouse, UniProt P43407 19-145, limits assumed).
T3 construct: Immobilised on Maxisorp plates for panning and ELISA; also called mSdc2; moSdc2
Description: Octet BLI, heading box over the sensorgram. Here is the method: as §1

Experiment [7] has as its target T1, human Sdc2. Nature of the experiment: Octet BLI, heading box over the sensorgram. Here is the method: as §1
Experiment [8] concerns the target T1, human Sdc2. Nature of the experiment: Octet tandem binning; saturating Ab m1 19838-20H19-AB.
The target in experiment [9] is T1, human Sdc2. Nature of the experiment: Octet tandem binning; saturating Ab m2 19838-8G17-A.
In experiment [10] the target is T1, human Sdc2. Description: Octet tandem binning; saturating Ab f11 19838-20-H19-A.
For experiment [11], the target named is T1, human Sdc2. Description: Kd (human Sdc2), summary table of the mAbs.
The target of experiment [12] is T1, human Sdc2. Description: Octet tandem binning; saturating Ab f6 19844-R3-P3-E09. The procedure, abridged:
(§2)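 Human Sdc2 (100 nM) served as antigen on Octet biosensors, which were dipped in saturating antibody at 25 μg/ml for 240 s, then competing antibody at 5 μg/ml for 180 s. Competing-antibody signal was divided by its binding after a buffer-only saturation step.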

Experiment [13] concerns the target T1, human Sdc2. Description: Octet tandem binning; saturating Ab f4 19844-R3-P3-C11. The procedure, abridged: as §2
Experiment [14] concerns the target T1, human Sdc2. Description: Octet tandem binning; saturating Ab m7 19844-R3-P1-E07.
Experiment [15] addresses T1, human Sdc2. Description: Octet tandem binning; saturating Ab f9 19838-6-E17-A.
Experiment [16] has as its target T1, human Sdc2. Description: Octet tandem binning; saturating Ab f7 19844-R3-P3-A12.
Experiment [17] deals with T1, human Sdc2. Description: Octet tandem binning; saturating Ab f12 19838-6-N03-A.
The target in experiment [18] is T1, human Sdc2. Nature of the experiment: Octet tandem binning; saturating Ab f3 19838-6N03-A.

T1 sequence (P34741 19-144 limits assumed): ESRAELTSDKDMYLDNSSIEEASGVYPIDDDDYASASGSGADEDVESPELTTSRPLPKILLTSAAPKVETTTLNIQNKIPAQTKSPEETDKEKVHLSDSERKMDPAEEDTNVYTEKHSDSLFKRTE
Chain of human Sdc2 on Human Umbilical Vein Endothelial Cells (HUVEC) (P34741 19-201 limits assumed): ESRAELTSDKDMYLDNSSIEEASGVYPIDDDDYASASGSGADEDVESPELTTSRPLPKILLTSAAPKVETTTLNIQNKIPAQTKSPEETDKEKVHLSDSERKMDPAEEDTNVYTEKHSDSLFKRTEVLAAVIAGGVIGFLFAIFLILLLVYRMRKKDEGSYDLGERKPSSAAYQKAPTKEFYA
T3 sequence (P43407 19-145 limits assumed): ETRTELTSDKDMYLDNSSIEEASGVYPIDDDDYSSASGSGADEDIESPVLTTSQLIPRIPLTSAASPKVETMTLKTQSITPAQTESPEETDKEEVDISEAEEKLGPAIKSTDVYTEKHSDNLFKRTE

B1: R4M-P3-A12 (antibody, human IgG1, kappa, V domains shown)
VH: EVQLVESGGGVVQPGGSLRLSCAASGFTFSDHYMSWIRQAPGKGLEWVSYLSGSGTSIYYADSVKGRFTISRDNAKKSLYLQMNSLRAEDTAVYYCARVGPAAGNAFDIWGQGTMVTVSS
VL: QSVLTQPPSASGTPGQRVTISCSGSSSNIGSNYVYWYQQLPGTAPKLLIYRNNQRPSGVPDRFSGSKSGTSASLAITGLQAEDEADYYCQSYDSSLSGVVFGGGTKLTVLR
On to B1, for which the “% Inhibition of VEGFA-induced permeability at 24hrs (20ug/ml)” value in experiment [1] was 60%. The “raw competing-Ab binding signal” value was 0.0642 in [2]; 0.0926 in [5]; 0.153 in [8]; 0.103 in experiment [9]; 0.165 in experiment [10]; -0.0526 in experiment [12]. Further, the “raw competing-Ab binding signal” value was -0.0875 in experiment [13]; 0.132 in experiment [14]; 0.115 in [15]; -0.0178 in experiment [16]; 0.136 in [17]; 0.106 in [18]. The Kd (in general, the concentration at which binding is half-saturated) in experiment [3] was 15 nM; in experiment [4], 14.4 nM; in [6] it was around 11.6 nM; in experiment [7] it was around 14 nM; in [11] it was 14 nM. In addition, the results for the koff in [3] and in experiment [4] were 0.0419 s⁻¹ and 0.067 s⁻¹, respectively. The kon (in general, the rate constant with which the complex forms) was determined as 2.8e+06 M⁻¹ s⁻¹ in experiment [3] and 4.65e+06 M⁻¹ s⁻¹ in experiment [4].
